Test results as given in the Human Domainome abundance scans (Beltran et al. 2025).
± gives the uncertainty stated by the source.

B1: POU domain, class 3, transcription factor 2, residues 262 to 338; numbered along this chain, P20265 (parent)
chain: EDTPTSDDLEQFAKQFKQRRIKLGFTQADVGLALGTLYGNVFSQTTICRFEALQLSFKNMCKLKPLLNKWLEEADSS

Variants of: B1
Test: abundance fitness (aPCA) (normalised: wild type 0, dead -1); higher = more abundant; growth selection in yeast, the domain comes from the species named
Details: Homo sapiens
With ADTPTSDDLEQFAKQFKQRRIKLGFTQADVGLALGTLYGNVFSQTTICRFEALQLSFKNMCKLKPLLNKWLEEADSS the abundance fitness was -0.108 ± 0.058. For EDTPTSDDLEQFAKQFKQRRIKLGFTQADVGLALGTLYGNVFSQTGICRFEALQLSFKNMCKLKPLLNKWLEEADSS, the abundance fitness was -0.643 ± 0.036. Variant EDTPTSDDLEQFAKQFKQRRIKLGFTQADVGLALGTLYGNVFSQTRICRFEALQLSFKNMCKLKPLLNKWLEEADSS has an abundance fitness of -0.376 ± 0.03. Variant EDTPTSDDLEQFAKQFKQRRIKLGFTQADVGLALGTLYGNVFSQTHICRFEALQLSFKNMCKLKPLLNKWLEEADSS has an abundance fitness of -0.208 ± 0.066. EDTPTSDDLEQFAKQFKQRRIKLGFTQADVGLALGTLYGNVFSQTTICRFEALQLSFKNMCKLKDLLNKWLEEADSS gave an abundance fitness of -0.118 ± 0.097. EDTPTSDDLEQFAKNFKQRRIKLGFTQADVGLALGTLYGNVFSQTTICRFEALQLSFKNMCKLKPLLNKWLEEADSS showed an abundance fitness of 0.063 ± 0.11. With EDTPTSDDLEQFAKQFKQRRIKLGFTQADVGLALGTLYGNVFSQTTICRFEALQLSFKNMCKLKPLLVKWLEEADSS the abundance fitness was 0.085 ± 0.077. EDTPTSDDGEQFAKQFKQRRIKLGFTQADVGLALGTLYGNVFSQTTICRFEALQLSFKNMCKLKPLLNKWLEEADSS gave an abundance fitness of -0.605 ± 0.05. Work on EDTPTSDDLEQFAKQFKQRRIKLCFTQADVGLALGTLYGNVFSQTTICRFEALQLSFKNMCKLKPLLNKWLEEADSS yielded an abundance fitness of -0.575 ± 0.053. For EDTPTSDDLEQFAKQFKQRRYKLGFTQADVGLALGTLYGNVFSQTTICRFEALQLSFKNMCKLKPLLNKWLEEADSS, the abundance fitness was -0.489 ± 0.088. EDTPTSDDLEQFAKQFKQRRIKLGFTQADVGLALGTLGGNVFSQTTICRFEALQLSFKNMCKLKPLLNKWLEEADSS showed an abundance fitness of -0.074 ± 0.028. With EDTPTSDDLEQFAKQFKQRRIKLGFTQADVGLALGTLYGNVFSQTTICRFEALQLSFNNMCKLKPLLNKWLEEADSS the abundance fitness was 0.039 ± 0.18. EDTPTSDDLEQFAKQFKQRVIKLGFTQADVGLALGTLYGNVFSQTTICRFEALQLSFKNMCKLKPLLNKWLEEADSS gave an abundance fitness of -0.728 ± 0.059. EDTPTSDDLEQFAKQFKQRFIKLGFTQADVGLALGTLYGNVFSQTTICRFEALQLSFKNMCKLKPLLNKWLEEADSS gave an abundance fitness of -1.03 ± 0.41. EDTPTSDDLEQFAKQFKQRGIKLGFTQADVGLALGTLYGNVFSQTTICRFEALQLSFKNMCKLKPLLNKWLEEADSS showed an abundance fitness of -0.938 ± 0.065. EDTPTSDDLEQFAKQFKQRKIKLGFTQADVGLALGTLYGNVFSQTTICRFEALQLSFKNMCKLKPLLNKWLEEADSS gave an abundance fitness of -1.25 ± 0.35. With EDTPTSDDLEQFAKQFKQRRIKLGFTQADVALALGTLYGNVFSQTTICRFEALQLSFKNMCKLKPLLNKWLEEADSS the abundance fitness was 0.047 ± 0.033. Variant EDTPTSDDLEQFAKQFKIRRIKLGFTQADVGLALGTLYGNVFSQTTICRFEALQLSFKNMCKLKPLLNKWLEEADSS has an abundance fitness of -0.223 ± 0.12. EDTPTSDDLEQFAKQFKQRRIKLGFTQADVGLALGTAYGNVFSQTTICRFEALQLSFKNMCKLKPLLNKWLEEADSS gave an abundance fitness of -0.023 ± 0.034. With EDTPTSDDLEQFAKQFKQRRIKLGFTQADVGLALGTEYGNVFSQTTICRFEALQLSFKNMCKLKPLLNKWLEEADSS the abundance fitness was -0.012 ± 0.035. With EDTPTSDDLKQFAKQFKQRRIKLGFTQADVGLALGTLYGNVFSQTTICRFEALQLSFKNMCKLKPLLNKWLEEADSS the abundance fitness was 0.124 ± 0.037. With EDTPTSDPLEQFAKQFKQRRIKLGFTQADVGLALGTLYGNVFSQTTICRFEALQLSFKNMCKLKPLLNKWLEEADSS the abundance fitness was -0.34 ± 0.066. In the case of EDTPTSDDLEQFAKQFKQRRIKLGFTQADVGLALGTLYGNVFSQTTICRFEALQLSFKNMCKLKPLPNKWLEEADSS, the abundance fitness is reported as -0.654 ± 0.16. With EDTPTSDDLEQFAKQFKQRRIKLGFTQAEVGLALGTLYGNVFSQTTICRFEALQLSFKNMCKLKPLLNKWLEEADSS the abundance fitness was -0.04 ± 0.032. With EDTPTSDDLEQFAKQFKQRRIKLGFTQASVGLALGTLYGNVFSQTTICRFEALQLSFKNMCKLKPLLNKWLEEADSS the abundance fitness was -0.248 ± 0.034. Work on EDTPTSDDLEQFAKQFKQRRIKLGFTQADVGLALGTLYGNVFSQTTICRFEALQLSRKNMCKLKPLLNKWLEEADSS yielded an abundance fitness of 0.02 ± 0.025. Variant EDTPTSDDLEQFAKQFKQRRIKLGFTQADFGLALGTLYGNVFSQTTICRFEALQLSFKNMCKLKPLLNKWLEEADSS has an abundance fitness of -0.552 ± 0.35. EDTPTSDDLEQFAKQFKQRRIKLGFTQADVGLALSTLYGNVFSQTTICRFEALQLSFKNMCKLKPLLNKWLEEADSS showed an abundance fitness of 0.037 ± 0.033. In the case of EDTPTSDDLEQFAKQFKQRRIKLGFTQADVGLALFTLYGNVFSQTTICRFEALQLSFKNMCKLKPLLNKWLEEADSS, the abundance fitness is reported as -0.183 ± 0.054. Variant EDTPTSDDLEQFAKQFKQRRIKLGFWQADVGLALGTLYGNVFSQTTICRFEALQLSFKNMCKLKPLLNKWLEEADSS has an abundance fitness of -0.898 ± 0.11. Variant EDTPTSDDLEQFAKQFKQRRIKLGFHQADVGLALGTLYGNVFSQTTICRFEALQLSFKNMCKLKPLLNKWLEEADSS has an abundance fitness of -0.285 ± 0.12. In the case of EDTPTSDDLEQFAKQFKQRRIKLGYTQADVGLALGTLYGNVFSQTTICRFEALQLSFKNMCKLKPLLNKWLEEADSS, the abundance fitness is reported as 0.041 ± 0.057. Variant EDTPTSDDLEQFAKQFKQRRIKLGDTQADVGLALGTLYGNVFSQTTICRFEALQLSFKNMCKLKPLLNKWLEEADSS has an abundance fitness of -0.749 ± 0.11. Work on EDTPTSDDLEQFAKQFKQRRIKLGFTQADVGLAFGTLYGNVFSQTTICRFEALQLSFKNMCKLKPLLNKWLEEADSS yielded an abundance fitness of -0.732 ± 0.17. In the case of EDTPTSDDLEQFAKQFKQRRIKLGFTPADVGLALGTLYGNVFSQTTICRFEALQLSFKNMCKLKPLLNKWLEEADSS, the abundance fitness is reported as -0.028 ± 0.047.
